Measured values published in paper PMC3777911 (PLoS ONE, 2013).

B1: HA-Sec13 (natural protein, UniProt P55735 1-322, looked up)
chain: MVSVINTVDTSHEDMIHDAQMDYYGTRLATCSSDRSVKIFDVRNGGQILIADLRGHEGPVWQVAWAHPMYGNILASCSYDRKVIIWREENGTWEKSHEHAGHDSSVNSVCWAPHDYGLILACGSSDGAISLLTYTGEGQWEVKKINNAHTIGCNAVSWAPAVVPGSLIDHPSGQKPNYIKRFASGGCDNLIKLWKEEEDGQWKEEQKLEAHSDWVRDVAWAPSIGLPTSTIASCSQDGRVFIWTCDDASSNTWSPKLLHKFNDVVWHVSWSITANILAVSGGDNKVTLWKESVDGQWVCISDVNKGQGSVSASVTEGQQNEQ
notes: Sec13, mammalian COPII outer coat protein; source: co-expressed with His-Sec31A or His-Sec31ADelABD in ES-SF9 cells (Bac-to-Bac baculovirus)
B2: ALG-2 (product of the apoptosis linked gene-2), recombinant wild type (natural protein, UniProt P12815 1-191, looked up)
chain: MAAYSYRPGPGGGPGPAAGAALPDQSFLWNVFQRVDKDRSGVISDNELQQALSNGTWTPFNPVTVRSIISMFDRENKAGVNFSEFTGVWKYITDWQNVFRTYDRDNSGMIDKNELKQALSGFGYRLSDQFHDILIRKFDRQGRGQIAFDDFIQGCIVLQRLTDIFRRYDTDQDGWIQVSYEQYLSMVFSIV
notes: also called wt ALG-2; rALG-2; source: recombinant, purified as previously described [16]

Legend:
[1] = target: T1, His-Sec31A (human, UniProt O94979 1-1220); assay: co-purification (Ni-NTA affinity chromatography); the two chains co-expressed in ES-SF9 cells; complex purified on Ni-NTA through the His tag of Sec31A or Sec24; purified Sec13/Sec31A collected again on Ni beads, SyproRed; details: partners not purified
T1 construct: human Sec31A; also called wt Sec31A; source: co-expressed with HA-Sec13 in ES-SF9 cells (Bac-to-Bac baculovirus)
T1 sequence (looked up): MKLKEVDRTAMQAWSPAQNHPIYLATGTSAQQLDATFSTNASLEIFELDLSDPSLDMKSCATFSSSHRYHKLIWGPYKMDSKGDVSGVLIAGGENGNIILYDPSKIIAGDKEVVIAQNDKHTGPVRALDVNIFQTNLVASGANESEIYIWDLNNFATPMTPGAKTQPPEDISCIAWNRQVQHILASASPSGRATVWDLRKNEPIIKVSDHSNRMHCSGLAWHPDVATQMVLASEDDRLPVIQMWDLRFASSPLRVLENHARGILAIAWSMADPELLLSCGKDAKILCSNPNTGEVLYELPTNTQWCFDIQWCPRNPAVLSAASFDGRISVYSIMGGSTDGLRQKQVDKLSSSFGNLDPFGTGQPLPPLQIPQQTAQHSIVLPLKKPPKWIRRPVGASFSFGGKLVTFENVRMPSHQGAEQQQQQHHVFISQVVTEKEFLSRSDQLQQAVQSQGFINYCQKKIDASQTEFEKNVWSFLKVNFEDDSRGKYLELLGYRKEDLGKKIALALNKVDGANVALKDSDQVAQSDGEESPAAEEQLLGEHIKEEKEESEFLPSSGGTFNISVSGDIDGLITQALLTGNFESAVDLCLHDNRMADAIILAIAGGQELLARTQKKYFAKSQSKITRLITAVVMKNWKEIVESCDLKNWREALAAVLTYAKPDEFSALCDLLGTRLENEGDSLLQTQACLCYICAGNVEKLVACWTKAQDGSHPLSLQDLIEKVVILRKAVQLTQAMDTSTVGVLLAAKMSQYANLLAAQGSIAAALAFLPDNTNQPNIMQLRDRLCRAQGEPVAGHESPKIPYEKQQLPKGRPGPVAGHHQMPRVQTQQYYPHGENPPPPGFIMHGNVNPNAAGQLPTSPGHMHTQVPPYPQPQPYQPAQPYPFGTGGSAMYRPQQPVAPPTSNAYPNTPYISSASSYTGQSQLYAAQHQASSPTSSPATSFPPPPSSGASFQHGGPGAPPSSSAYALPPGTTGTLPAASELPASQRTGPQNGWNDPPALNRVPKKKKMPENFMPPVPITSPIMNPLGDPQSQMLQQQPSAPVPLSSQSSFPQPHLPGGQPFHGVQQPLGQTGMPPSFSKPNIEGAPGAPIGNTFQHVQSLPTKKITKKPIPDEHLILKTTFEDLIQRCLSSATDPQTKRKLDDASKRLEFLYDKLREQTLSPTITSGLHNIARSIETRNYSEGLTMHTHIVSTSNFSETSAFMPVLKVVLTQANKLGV

[2] = target: T2, HA-Sec13/His-Sec31A complex (outer COPII coat), wild type ( | human, UniProt P55735 1-322; O94979 1-1220); assay: pull-down; His-tagged Sec31A (Sec13/Sec31A) immobilised on Nickel beads, recombinant ALG-2 versions added, in the presence of Ca2+; eluates on SDS-PAGE, SyproRed; ratios from fluorescence intensity; details: both partners purified
T2 construct: Sec13, mammalian COPII outer coat protein; human Sec31A; also called Sec13/31A; Sec13/Sec31A (wt); source: co-expressed in ES-SF9 cells (Bac-to-Bac baculovirus), purified (Ni-NTA)

Binder	stoichiometry N [1]	stoichiometry N [2]
B1	~1 Sec13 per Sec31A (molar ratio)	
B2		~2 ALG-2 per Sec31A (molar ratio)
